# Test results: patent US20240189439A1
# Target: human PMEL17 (human) (UniProt P40967)
# Experiment: FACS titration of IgG on G-361 cells (human melanoma), PE detection antibody
# human PMEL17 (human), sequence (P40967 25-661): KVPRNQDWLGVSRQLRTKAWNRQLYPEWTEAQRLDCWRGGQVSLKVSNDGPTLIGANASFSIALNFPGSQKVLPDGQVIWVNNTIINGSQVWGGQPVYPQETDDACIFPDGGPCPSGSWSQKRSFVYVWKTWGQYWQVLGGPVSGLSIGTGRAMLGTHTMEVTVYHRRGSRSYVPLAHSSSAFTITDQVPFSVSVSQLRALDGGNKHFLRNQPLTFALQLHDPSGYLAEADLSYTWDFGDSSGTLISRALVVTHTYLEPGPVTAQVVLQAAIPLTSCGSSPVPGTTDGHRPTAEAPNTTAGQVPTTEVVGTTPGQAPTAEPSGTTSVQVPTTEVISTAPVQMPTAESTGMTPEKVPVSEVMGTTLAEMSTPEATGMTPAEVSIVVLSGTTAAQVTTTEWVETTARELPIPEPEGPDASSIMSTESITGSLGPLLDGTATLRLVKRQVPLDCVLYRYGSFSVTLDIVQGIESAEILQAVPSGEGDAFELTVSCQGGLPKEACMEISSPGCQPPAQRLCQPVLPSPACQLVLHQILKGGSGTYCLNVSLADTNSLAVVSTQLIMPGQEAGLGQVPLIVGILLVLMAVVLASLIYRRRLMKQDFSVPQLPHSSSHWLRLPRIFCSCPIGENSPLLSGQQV
row,EC50,Binder
1,0.5 nM,"Y010355 (antibody, V domains shown) VH: EVQLVESGGGLVKPGGSLRLSCAASGFTFSNYWISWVRQAPGKGLEWVGRIKSKTYGGTTDYAEPVKGRFTISRDDSKNTLYLQMNSLKTEDTAVYYCARTSRRSYAFDYWGQGTLVTVSS VL: DIQMTQSPSTLSASVGDRVTITCRASQSISSWLAWYQQKPGKAPKLLIYDASSLESGVPSRFSGSGSGTEFTLTISSLQPEDFATYYCQQITRYPVTFGQGTKVEIK"
2,1.6 nM,"Y010356 (antibody, V domains shown) VH: EVQLVESGGGLVKPGGSLRLSCAASGFTFSNYWISWVRQAPGKGLEWVGRIKSKTYGGTTDYAEPVKGRFTISRDDSKNTLYLQMNSLKTEDTAVYYCARVSGYYSHSGGFDVWGQGTLVTVSS VL: DIQMTQSPSSLSASVGDRVTITCRASQGISNYLAWYQQKPGKVPKLLIYAASTLQSGVPSRFSGSGSGTDFTLTISSLQPEDVATYYCQKTWRTPGTFGQGTKVEIK"
3,2.8 nM,"Y010417 (antibody, V domains shown) VH: EVQLVQSGAEVKKPGESLKISCKGSGYSFTSYWIGWVRQMPGKGLEWMGIIYPGDSDTRYSPSFQGQVTISADKSISTAYLQWSSLKASDTAMYYCARGSSAASGLSGDLWGQGTLVTVSS VL: DIQMTQSPSSLSASVGDRVTITCRASQSISSYLNWYQQKPGKAPKLLIYAASSLQSGVPSRFSGSGSGTDFTLTISSLQPEDFATYYCQQDYYSPFTFGQGTKVEIK"

# Target: human PMEL17 (human) (UniProt P40967)
# Experiment: FACS titration of IgG on G-361 cells (human melanoma), Alexa Fluor detection antibody
row,EC50,Binder
1,10 nM,"Y010910 (antibody, V domains shown) VH: EVQLVESGGGLVKPGGSLRLSCAASGFTFSNAWMSWVRQAPGKGLEWVGRIKSKTDAGTTDYAAPVKGRFTISRDDSKNTLYLQMNSLKTEDTAVYYCARVASPSAPGGFDYWGQGTLVTVSS VL: DIQMTQSPSSLSASVGDRVTITCRASQGISNYLAWYQQKPGKVPKLLIYAASTLQSGVPSRFSGSGSGTDFTLTISSLQPEDVATYYCQQSLFAPFTFGQGTKVEIK"
2,2 nM,"Y010906 (antibody, V domains shown) VH: EVQLVESGGGLVKPGGSLRLSCAASGFTFSNAWMSWVRQAPGKGLEWVGRIKSKTDAGTTDYAAPVKGRFTISRDDSKNTLYLQMNSLKTEDTAVYYCARDEYPWGWFDVWGQGTLVTVSS VL: DIQMTQSPSSVSASVGDRVTITCRASQGISSWLAWYQQKPGKAPKLLIYAASSLQSGVPSRFSGSGSGTDFTLTISSLQPEDFATYYCQQYIFYPLTFGQGTKVEIK"
3,1.7 nM,"MOR024354 (antibody, V domains shown) VH: QVQLLESGGGLVQPGGSLRLSCAASGFTFSSFGMSWVRQAPGKGLEWVSAISYSGSDTYYADSVKGRFTISRDNSKNTLYLQMNSLRAEDTAVYYCARDVGVMDYWGQGTLVTVSS VL: SYELTQPLSVSVALGQTARITCSGDNLGTYYAHWYQQKPGQAPVLVIYSQSHRPSGIPERFSGSNSGNTATLTISRAQAGDEADYYCGAWDAPSPELVFGGGTKLTVL"

# Further lines, the binder ahead of its results:
row,Binder,EC50
1,"Y010903 (antibody, V domains shown) VH: EVQLVESGGGLVKPGGSLRLSCAASGFTFSNAWMSWVRQAPGKGLEWVGRIKSKTDAGTTDYAAPVKGRFTISRDDSKNTLYLQMNSLKTEDTAVYYCARASHRLHSLFDVWGQGTLVTVSS VL: DIQMTQSPSTLSASVGDRVTITCRASQSISSWLAWYQQKPGKAPKLLIYDASSLESGVPSRFSGSGSGTEFTLTISSLQPEDFATYYCQQGLFYPHTFGQGTKVEIK",3.2 nM
2,"Y010900 (antibody, V domains shown) VH: EVQLVESGGGLVKPGGSLRLSCAASGFTFSNAWMSWVRQAPGKGLEWVGRIKSKTDAGTTDYAAPVKGRFTISRDDSKNTLYLQMNSLKTEDTAVYYCARTIYPSAPSSSLDYWGQGTLVTVSS VL: DIQMTQSPSSLSASVGDRVTITCRASQGISNYLAWYQQKPGKVPKLLIYAASTLQSGVPSRFSGSGSGTDFTLTISSLQPEDVATYYCQQLIFFPLTFGQGTKVEIK",1.3 nM
